Results reported in the RNAGym collection of RNA variant scans (doi:10.7554/elife.90254).

B1: OR4K15 (parent)
chain: GUUAACGGUCAUAGGCCAUGGAAACUAGGAGCACCAUUUCGCUGCCAGUGAAGAAAUGAACAAAGAAAAUCUGGGCCAGGCAGGCAUCAAAAGAAAUAGUCUUGCGCUCAACCAGAAAGUCUGUAAUCAUUUUAAGGGUA

Variants of: B1
Experiment: self-cleavage, relative activity (ratio to wild type); higher = more cleavage; in vitro, sequencing; the parent is a self-cleaving ribozyme

Point of comparison: U26C A68G, self-cleavage 1.26. Against it:
- U26A A129G — higher, 1.36
- C25U U57C — higher, 1.42
- A24G U70A — lower, 1.17
- C25U A62G — lower, 0.59
- A24G U133A — lower, 1.18
- A24G U133C — lower, 1.14
- A24G A111G — lower, 0.03
- A24G A114G — lower, 0.44
- A24G A114C — lower, 0.05
- U26C A116G — lower, 1.14
- A27G A54U — lower, 1.03
- A24G U57G — lower, 0.4
- C25U A54U — higher, 1.33
- C25U A89G — higher, 1.27
- A24U G123A — higher, 1.3
- A24G A96G — lower, 1.2
- A24G U124A — lower, 0.74
- A24G U124C — lower, 0.73
- A24G G83A — lower, 0.98
- A24U A135U — lower, 0.83
- U26A A98G — lower, 0.3
- U26C A60G — higher, 1.61
- U26A U130C — lower, 0.54
- A24U U102C — the same, 1.26
- U26G A63G — higher, 2.09
- C25G A30G — lower, 0.59
- A27G A60G — lower, 1.09
- U26C A27G — lower, 0.75
- U26C A27U — lower, 1.2
- A27U A36G — higher, 1.64
- C25U U87C — lower, 1.11
- G28A A114G — lower, 0.35
- U26A A47G — lower, 0.94
- A27C A33U — higher, 2.06
- U26C U130C — lower, 0.3
- A27G A52C — higher, 1.41
- A27G U103C — lower, 0.76
- A27U A63G — higher, 2.61
- G28A A68G — higher, 2.39
- G28U U100C — higher, 2.35
- G28U U100A — lower, 0.25
- A24G A92G — lower, 1.19
- C25U U131C — higher, 1.57
- A24G A89C — higher, 1.51
- A24G A126G — lower, 0.83
- A27G A90U — lower, 1
- U26C U102C — higher, 1.65
- G28A A98G — lower, 0.39
- A27G U131C — higher, 1.67
- U26C U139A — higher, 1.49
- G28U A134C — higher, 2.09
- U26C A59G — lower, 0.96
- U26C A63G — higher, 1.48
- A27G A86G — higher, 1.4
- A27G A86U — higher, 1.34
- U26A U43C — higher, 1.45
- U26C U108C — lower, 0.01
- U26C A140G — higher, 1.4
- A27G A95U — lower, 1.2
- U26C C77U — higher, 1.77
- A24U U87A — higher, 1.8
- U26C A89G — higher, 1.35
- U26C U39A — lower, 1.13
- A24G G29U — lower, 1.2
- G28U A47G — higher, 2.28
- G28A A89U — higher, 1.38
- A27G G28A — lower, 0.78
- C25U A110U — lower, 0.57
- U26G A52C — lower, 0.7
- A27C A67U — higher, 1.29
- A24G A95G — higher, 1.71
- A27G A114G — lower, 0.27
- A27U G53A — higher, 1.86
- A24G A135G — higher, 1.67
- A24G A135U — higher, 1.33
- A27G A129U — lower, 0.72
- C25G A59G — lower, 0.57
- A27U A64U — higher, 2.21
- C25U A67G — higher, 1.55
- A27G G79A — lower, 0.15
- U26C A67G — higher, 1.81
- A24U A51G — higher, 1.78
- A24U A51U — higher, 1.61
- A24G G74A — lower, 0.31
- A27G U127C — lower, 0.56
- A27G U127A — higher, 1.58
- A24G G73A — lower, 0.29
- U26C U87C — lower, 0.37
- A24U U100C — higher, 2.08
- U26C U122C — lower, 0.7
- A24G C34U — higher, 1.69
- A27G A134G — higher, 1.86
- U26C A56G — higher, 1.43
- U26C C46U — lower, 0.81
- A27G U49C — higher, 2.01
- A27G U49A — lower, 0.93
- A24U A27U — lower, 1.14
- C25U U120A — higher, 2.95
- U26A U120G — the same, 1.26
- U26C A86G — higher, 1.33
- U26C A86C — lower, 0.7
- U26C A86U — higher, 1.52
- C25U A63G — lower, 0.37
- U26A U39A — lower, 0.92
- A27G U120C — lower, 0.68
- A27U A116G — lower, 0.63
- G28U U49A — higher, 2.04
- G28A C128A — higher, 1.34
- A27G A63G — higher, 1.49
- A27G A64G — higher, 1.27
- A27U U132A — higher, 1.42
- U26A U57G — lower, 0.97
- A24U A66G — higher, 1.66
- A24G G104U — lower, 0.01
- C25A U38C — lower, 1.05
- A24U A33G — lower, 1.14
- U26C A110G — lower, 0.08
- U26C A110C — lower, 0.25
- G28A A67G — higher, 1.55
- C25G U108C — lower, 0.03
- U26C A30C — lower, 0.98
- U26C A30U — lower, 1.14
- A24G A125C — lower, 0.4
- A24G U103A — lower, 0.42
- A24G U103C — lower, 0.32
- A27U U108C — lower, 0.03
- A27C A69G — higher, 1.34
- U26A U100A — lower, 0.98
- U26A A27G — lower, 0.9
- U26C G44A — lower, 1.07
- A27G G48U — lower, 0.5
- U26A A54G — higher, 1.95
- A27G A30G — lower, 0.69
- C25U A91U — lower, 1.13
- A24U A116U — lower, 0.51
- A24U U43A — higher, 1.68
- G28A A52G — higher, 1.9
- A27G A96U — higher, 1.83
- A24U C128A — higher, 1.85
- A27U U87A — higher, 1.48
- A24U A54G — higher, 1.46
- A27G A82U — lower, 0.27
- A24G A116U — lower, 0.46
- G28A U57C — lower, 0.4
- C25A A36G — lower, 1.03
- A24G A134G — lower, 0.94
- A24U A110G — lower, 0.13
- A27G A66G — lower, 0.7
- U26C A51U — higher, 1.69
- U26C A51C — higher, 1.55
- A24G C35U — lower, 1.12
- U26C A54G — higher, 1.61
- U26A C105A — lower, 0.02
- C25U U102A — lower, 0.79
- A24U A118G — lower, 0.99
- C25U A59G — lower, 1.24
- A24U A86G — higher, 1.8
- A27G U122A — higher, 1.47
- A27G U122C — higher, 1.45
- A27G A94G — higher, 1.48
- C25U A111G — lower, 0.09
- C25U C109U — lower, 0.48
- A27G C105U — lower, 0.24
- A24G A82C — lower, 0.25
- A24G A82G — lower, 0.67
- C25U U127C — lower, 0.57
